Test [1] addresses T1, mouse Fc fusion of B7H3, full extracellular V1C1-V2C2 domain (human, UniProt Q5ZPR3 29-466).
T1 construct: extracellular domain; Fusions of the single V1C1 and V2C2 domains were tested as well; also called B7H3 antigen; printed 'V1C1-V2V2'; not shown: mouse Fc
T1 sequence (looked up): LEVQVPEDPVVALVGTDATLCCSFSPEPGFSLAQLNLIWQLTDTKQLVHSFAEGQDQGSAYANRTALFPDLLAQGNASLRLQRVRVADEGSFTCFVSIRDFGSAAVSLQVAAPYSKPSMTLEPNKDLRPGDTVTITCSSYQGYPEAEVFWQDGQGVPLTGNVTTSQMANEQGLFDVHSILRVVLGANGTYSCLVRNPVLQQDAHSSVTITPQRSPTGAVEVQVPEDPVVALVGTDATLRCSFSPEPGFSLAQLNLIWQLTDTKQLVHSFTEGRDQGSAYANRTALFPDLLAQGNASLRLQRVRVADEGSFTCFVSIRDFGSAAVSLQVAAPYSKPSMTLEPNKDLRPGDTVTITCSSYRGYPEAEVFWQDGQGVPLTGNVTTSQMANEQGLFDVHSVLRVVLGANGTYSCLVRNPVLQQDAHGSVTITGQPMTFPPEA
Briefly: Octet (BLI), B7H3 mouse Fc fusions on anti-mouse Fc biosensors, 1:1 Langmuir fit. From the text:
(§1) To investigate whether the difference observed for XENP34339 resulted from the difference in B7H3 binding domain or the difference in bispecific antibody format, the component binding domains of XENP34339 and XENP34389 were biophysically characterized using Octet. […] Anti-mouse Fc biosensors were used to capture mouse Fc fusions of B7H3, either the full extracellular V1C1-[…] domain or the individual V1C1 or V2C2 domains, and dipped into multiple concentrations of XENP34717 or XENP34728. Kinetic analyses were performed by global fitting of binding data with a 1:1 Langmuir binding model. […] Next, the binding affinities of the CD28 binding domains for CD28 antigen in the 2+1 CLC format and the 2+1 Fab2-scFv-Fc format was investigated. Anti-HIS capture (HIS1K) biosensors were used to capture CD28-Fc-His protein and dipped into multiple concentrations of XENP34339 or XENP34389. Kinetic analyses were performed by global fitting of binding data with a 1:1 Langmuir binding model as well as steady state model. The resulting dissociation constant (KD) are depicted in FIG. 53.

Test [2] addresses T2, B7H3 (antigen of the affinity statements) (human, UniProt Q5ZPR3 29-466, limits assumed).
T2 construct: also called CD276
T2 sequence (looked up): T1 sequence (looked up)
Briefly: monovalent affinity in 1+1 bsAb format (Example 2B).

For another test, the target named is T3, CD28-Fc-His protein (human, UniProt P10747 19-152).
T3 construct: Captured on anti-HIS (HIS1K) biosensors; also called CD28 antigen; not shown: Fc; His tag
Briefly: Octet (BLI), CD28-Fc-His on HIS1K biosensors, 1:1 Langmuir and steady state fits.
Source text: as §1
Background: Biolayer interferometry detects binding as a change in optical thickness at a sensor tip.

Changes are numbered by the printed parent chain.

B1: XENP34717 (bispecific antibody)
heavy 1: EVQLLESGGGLVQPGGSLRLSCAASGFTFSSYYMSWVRQAPGKGLEWVSTISESGDSTYYADSVKGRFTISRDNSKNTLYLQMNSLRAEDTAVYYCAKSGPGLRQVGFDYWGQGTLVTVSSASTKGPSVFPLAPSSKSTSGGTAALGCLVKDYFPEPVTVSWNSGALTSGVHTFPAVLQSSGLYSLSSVVTVPSSSLGTQTYICNVNHKPSDTKVDKKVEPKSCDKTHTCPPCPAPPVAGPSVFLFPPKPKDTLMISRTPEVTCVVVDVKHEDPEVKFNWYVDGVEVHNAKTKPREEEYNSTYRVVSVLTVLHQDWLNGKEYKCKVSNKALPAPIEKTISKAKGQPREPQVYTLPPSREEMTKNQVSLTCDVSGFYPSDIAVEWESDGQPENNYKTTPPVLDSDGSFFLYSKLTVDKSRWEQGDVFSCSVMHEALHNHYTQKSLSLSPGK
heavy 2: QVQLVQSGAEVKKPGASVKVSCKASGYIFTNNYMHWVRQAPGQGLEWMGIISPSVGRTAYAQKFQGRVTMTRDTSTSTVYMELSSLRSEDTAVYYCARGGGSSPRLDYWGQGTLVTVSSASTKGPSVFPLAPSSKSTSGGTAALGCLVKDYFPEPVTVSWNSGALTSGVHTFPAVLQSSGLYSLSSVVTVPSSSLGTQTYICNVNHKPSNTKVDKKVEPKSCDKTHTCPPCPAPPVAGPSVFLFPPKPKDTLMISRTPEVTCVVVDVKHEDPEVKFNWYVDGVEVHNAKTKPREEQYNSTYRVVSVLTVLHQDWLNGKEYKCKVSNKALPAPIEKTISKAKGQPREPQVYTLPPSREQMTKNQVKLTCLVKGFYPSDIAVEWESNGQPENNYKTTPPVLDSDGSFFLYSKLTVDKSRWQQGNVFSCSVMHEALHNHYTQKSLSLSPGK
light: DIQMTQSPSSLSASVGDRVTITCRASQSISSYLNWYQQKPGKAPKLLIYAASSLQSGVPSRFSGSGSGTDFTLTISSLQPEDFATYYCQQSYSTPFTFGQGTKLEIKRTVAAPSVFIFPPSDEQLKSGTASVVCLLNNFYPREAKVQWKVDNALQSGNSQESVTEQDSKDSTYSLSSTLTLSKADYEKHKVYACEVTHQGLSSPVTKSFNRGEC
notes: copies: 1 + 1 + 2
On to B1, for which the binding result in test [1] is “binds”.

B2: XENP35153 (bispecific antibody)
heavy: EVQLLESGGGLVQPGGSLRLSCAVSGFSLSSYGVIWVRQAPGKGLEYVSWVSSGGSTNYASSVKGRFTISRDTSKNTVYLQMNSLRAEDTAVYFCARGATNSGTDIWGPGTLVTVSSASTKGPSVFPLAPSSKSTSGGTAALGCLVKDYFPEPVTVSWNSGALTSGVHTFPAVLQSSGLYSLSSVVTVPSSSLGTQTYICNVNHKPSDTKVDKKVEPKSCDKTHTCPPCPAPPVAGPSVFLFPPKPKDTLMISRTPEVTCVVVDVKHEDPEVKFNWYVDGVEVHNAKTKPREEEYNSTYRVVSVLTVLHQDWLNGKEYKCKVSNKALPAPIEKTISKAKGQPREPQVYTLPPSREEMTKNQVSLTCDVSGFYPSDIAVEWESDGQPENNYKTTPPVLDSDGSFFLYSKLTVDKSRWEQGDVFSCSVLHEALHSHYTQKSLSLSPGK
scFv-Fc: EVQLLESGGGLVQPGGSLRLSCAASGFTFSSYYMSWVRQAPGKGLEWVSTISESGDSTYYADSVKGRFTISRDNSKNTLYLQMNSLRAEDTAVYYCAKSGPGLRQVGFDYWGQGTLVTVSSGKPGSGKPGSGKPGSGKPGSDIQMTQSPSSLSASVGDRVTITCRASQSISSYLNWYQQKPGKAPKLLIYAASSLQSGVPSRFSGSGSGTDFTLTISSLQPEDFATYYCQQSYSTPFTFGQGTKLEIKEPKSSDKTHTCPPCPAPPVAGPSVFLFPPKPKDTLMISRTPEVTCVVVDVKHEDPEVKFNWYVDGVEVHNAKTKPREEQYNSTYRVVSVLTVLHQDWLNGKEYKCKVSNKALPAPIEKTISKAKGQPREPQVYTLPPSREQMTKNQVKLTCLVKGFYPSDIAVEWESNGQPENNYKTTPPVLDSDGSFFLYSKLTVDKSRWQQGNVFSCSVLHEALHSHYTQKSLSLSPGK
light: DIVMTQSPSSLSASVGDRVTITCRASQSINSWLSWYQQKPGKPPKLLIYGASNLASGVPSRFKGSGSGTDFTLTISSLQPEDFATYYCQNNYGIIAAGATFGGGTKVEIKRTVAAPSVFIFPPSDEQLKSGTASVVCLLNNFYPREAKVQWKVDNALQSGNSQESVTEQDSKDSTYSLSSTLTLSKADYEKHKVYACEVTHQGLSSPVTKSFNRGEC
notes: 1+1 Fab-scFv-Fc; copies: 1 + 1 + 1
For the molecule B2, the binding result in test [2] was “binds”.

B3: XENP34732 (bispecific antibody)
heavy: EVQLLESGGGLVQPGGSLRLSCAASGFTFSNYYMAWVRQAPGKGLEWVSSISTGGGSTYYRDSVKGRFTISRDNSKSTLYLQMNSLRAEDTAVYYCTTDLSAIAATPFAYWGQGTLVTVSSASTKGPSVFPLAPSSKSTSGGTAALGCLVKDYFPEPVTVSWNSGALTSGVHTFPAVLQSSGLYSLSSVVTVPSSSLGTQTYICNVNHKPSDTKVDKKVEPKSCDKTHTCPPCPAPPVAGPSVFLFPPKPKDTLMISRTPEVTCVVVDVKHEDPEVKFNWYVDGVEVHNAKTKPREEEYNSTYRVVSVLTVLHQDWLNGKEYKCKVSNKALPAPIEKTISKAKGQPREPQVYTLPPSREEMTKNQVSLTCDVSGFYPSDIAVEWESDGQPENNYKTTPPVLDSDGSFFLYSKLTVDKSRWEQGDVFSCSVLHEALHSHYTQKSLSLSPGK
scFv-Fc: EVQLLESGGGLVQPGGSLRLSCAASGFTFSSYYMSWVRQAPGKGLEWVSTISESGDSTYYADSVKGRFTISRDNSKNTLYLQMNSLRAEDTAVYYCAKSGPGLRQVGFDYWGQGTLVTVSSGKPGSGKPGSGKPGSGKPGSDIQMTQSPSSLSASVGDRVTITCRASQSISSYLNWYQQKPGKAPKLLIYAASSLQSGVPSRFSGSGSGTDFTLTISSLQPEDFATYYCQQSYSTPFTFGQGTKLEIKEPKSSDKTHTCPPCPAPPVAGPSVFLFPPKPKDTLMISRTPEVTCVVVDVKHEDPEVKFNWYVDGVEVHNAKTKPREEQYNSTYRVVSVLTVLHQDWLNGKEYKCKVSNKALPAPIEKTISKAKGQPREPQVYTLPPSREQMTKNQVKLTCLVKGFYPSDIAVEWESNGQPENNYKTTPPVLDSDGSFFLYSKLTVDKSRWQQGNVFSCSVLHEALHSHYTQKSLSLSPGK
light: DIQMTQSPSSLSASVGDRVTITCRASQNIYTSLAWYQQKPGKAPKLLIYNAHSLQTGIPSRFSGSGSGADFTLTISSLQPEDFATYFCQQYYSGLTFGSGTKLEIKRTVAAPSVFIFPPSDEQLKSGTASVVCLLNNFYPREAKVQWKVDNALQSGNSQESVTEQDSKDSTYSLSSTLTLSKADYEKHKVYACEVTHQGLSSPVTKSFNRGEC
notes: as for B2
Take B3: the binding result in test [2] was “binds”.

B4: XENP34389 (bispecific antibody)
heavy 1: B3 heavy with L431M, S437N
heavy 2: not shown
light: B3 light
notes: 2+1 Fab2-scFv-Fc; also called B7H3 x CD28 in 2+1 Fab2-scFv-Fc format; copies: 1 + 1 + 2
As for B4, in the test with CD28-Fc-His protein, the binding result is given as “binds”.

B5: XENP35151 (bispecific antibody)
heavy: EVQLVESGGGLVKPGGSLRLSCAASGFSFSVGYYMCWVRQAPGKGLEWVSCIYVGSGSSGSTYYASVKGRFTISSDTAKTSVYLQMNSLRAEDTAVYFCARTAGSDWRLDLWGQGTLVTVSSASTKGPSVFPLAPSSKSTSGGTAALGCLVKDYFPEPVTVSWNSGALTSGVHTFPAVLQSSGLYSLSSVVTVPSSSLGTQTYICNVNHKPSDTKVDKKVEPKSCDKTHTCPPCPAPPVAGPSVFLFPPKPKDTLMISRTPEVTCVVVDVKHEDPEVKFNWYVDGVEVHNAKTKPREEEYNSTYRVVSVLTVLHQDWLNGKEYKCKVSNKALPAPIEKTISKAKGQPREPQVYTLPPSREEMTKNQVSLTCDVSGFYPSDIAVEWESDGQPENNYKTTPPVLDSDGSFFLYSKLTVDKSRWEQGDVFSCSVLHEALHSHYTQKSLSLSPGK
scFv-Fc: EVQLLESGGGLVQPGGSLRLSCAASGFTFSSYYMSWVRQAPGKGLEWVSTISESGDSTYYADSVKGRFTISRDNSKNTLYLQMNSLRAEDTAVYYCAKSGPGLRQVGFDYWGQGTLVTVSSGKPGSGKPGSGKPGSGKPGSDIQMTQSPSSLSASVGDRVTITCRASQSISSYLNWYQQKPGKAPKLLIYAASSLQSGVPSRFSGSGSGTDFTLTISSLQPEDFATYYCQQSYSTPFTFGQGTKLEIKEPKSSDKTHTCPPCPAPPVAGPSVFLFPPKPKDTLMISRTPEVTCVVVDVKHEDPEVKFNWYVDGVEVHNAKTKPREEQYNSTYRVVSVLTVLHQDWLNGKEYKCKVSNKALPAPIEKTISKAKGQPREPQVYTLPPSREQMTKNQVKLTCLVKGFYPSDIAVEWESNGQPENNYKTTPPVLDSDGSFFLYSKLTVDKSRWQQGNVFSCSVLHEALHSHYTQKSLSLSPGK
light: DIVMTQSPSSLSASVGDRVTITCRASQSIANELSWYQQKPGKPPKLLIYRASTLTSGVPSRFKGSGSGTDFTLTISSLQPEDFATYYCQSTYNGRAIGFGGGTKVEIKRTVAAPSVFIFPPSDEQLKSGTASVVCLLNNFYPREAKVQWKVDNALQSGNSQESVTEQDSKDSTYSLSSTLTLSKADYEKHKVYACEVTHQGLSSPVTKSFNRGEC
notes: as for B2
In the case of B5, the binding result in test [2] was “binds”.

The values are drawn from patent publication US20220098306A1 (Xencor, published 2022).
